The target in assay [1] is T1, MBP-ENL (489-559) (Homo sapiens (Human)) (UniProt Q03111).
T1 sequence: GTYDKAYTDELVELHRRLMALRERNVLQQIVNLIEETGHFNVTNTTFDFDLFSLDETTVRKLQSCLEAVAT
The assay is described as follows: ITC; peptide (500 µM) into MBP-ENL (110 µM). On the technique in general: In ITC the heat of successive injections is recorded.

For assay [2], the target named is T2, ENL (489-559), recombinant C-terminal domain of ENL (Homo sapiens (Human), UniProt Q03111).
T2 sequence: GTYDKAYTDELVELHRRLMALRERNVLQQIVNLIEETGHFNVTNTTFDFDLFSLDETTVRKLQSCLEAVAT
The assay can be described thus: competitive SPR; peptide pre-incubated with ENL (500 nM), over immobilised Mocr-DOT1L (826-1095). The method, then: Solution competitive SPR based assay was performed to determine the IC₅₀ values of DOT1L peptides. […] IC₅₀ values were determined by non-linear least squares analysis using Graph Pad Prism 5.0 software.

Assay [3] deals with T2, ENL (489-559), recombinant C-terminal …. The assay can be described thus: competitive SPR.
In assay [4] the target is T3, AF9 (497-568), recombinant C-terminal domain of human AF9 (human, UniProt P42568). The assay is described as follows: competitive SPR.
Assay [5] addresses T3, AF9 (497-568), recombinant C-terminal …. The assay is described as follows: competitive SPR; peptide pre-incubated with AF9 (500 nM), over immobilised Mocr-DOT1L (826-1095).
Assay [6] addresses T1, MBP-ENL (489-559) (Homo sapiens (Human)). The assay is described as follows: ITC.
For assay [7], the target named is T4, GB1-AF9 (497-568) (human) (UniProt P42568).
T4 sequence: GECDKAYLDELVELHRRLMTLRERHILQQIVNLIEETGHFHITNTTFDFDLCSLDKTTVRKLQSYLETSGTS
The assay is described as follows: FP saturation; 10 nM Flu-DOT1L titrated with GB1-AF9.

Assay [8] deals with T4, GB1-AF9 (497-568) (human). The assay can be described thus: FP saturation; 5 nM labeled peptide titrated with GB1-AF9.
Assay [9] deals with T1, MBP-ENL (489-559) (Homo sapiens (Human)). The assay is described as follows: FP saturation; 10 nM Flu-DOT1L titrated with MBP-ENL.
Assay [10] has as its target T4, GB1-AF9 (497-568) (human). The assay can be described thus: competitive FP; displacement of Flu-DOT1L from GB1-AF9.
Assay [11] has as its target T1, MBP-ENL (489-559) (Homo sapiens (Human)). The assay is described as follows: ITC; peptide (400 µM) into MBP-ENL (489-559) (80 µM).
Assay [12] concerns the target T4, GB1-AF9 (497-568) (human). The assay can be described thus: competitive FP; displacement of N-Flu-DOT1L from GB1-AF9.
Assay [13] addresses T5, DOT1L (826-958) (human) (UniProt Q8TEK3).
T5 sequence: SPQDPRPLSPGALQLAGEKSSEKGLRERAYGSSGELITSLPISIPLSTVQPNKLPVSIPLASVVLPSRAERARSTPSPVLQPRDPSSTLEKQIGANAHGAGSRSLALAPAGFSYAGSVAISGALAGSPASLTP
The assay can be described thus: SPR; DOT1L construct immobilised on CM5 chip. For orientation: In SPR one partner is held on a chip, and binding of the other changes the refractive index at the surface.

Assay [14] deals with T6, DOT1L (854-925) (human) (UniProt Q8TEK3).
T6 sequence: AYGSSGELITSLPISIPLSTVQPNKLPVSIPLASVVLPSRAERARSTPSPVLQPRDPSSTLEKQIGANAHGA
The assay can be described thus: SPR; DOT1L construct immobilised on CM5 chip.

Assay [15] addresses T7, DOT1L (826-937) (human) (UniProt Q8TEK3).
T7 sequence: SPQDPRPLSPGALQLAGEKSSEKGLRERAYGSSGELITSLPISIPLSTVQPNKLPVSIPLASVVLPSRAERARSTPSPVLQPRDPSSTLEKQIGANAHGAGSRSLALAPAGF
The assay is described as follows: SPR; DOT1L construct immobilised on CM5 chip.

The target in assay [16] is Mocr-DOT1L (826-1095) (human) (UniProt Q8TEK3). The assay can be described thus: SPR; DOT1L construct immobilised on CM5 chip.
Assay [17] deals with DOT1L (925-1095) (human) (UniProt Q8TEK3). The assay can be described thus: SPR; DOT1L construct immobilised on CM5 chip.
For assay [18], the target named is DOT1L (854-1095) (human) (UniProt Q8TEK3). The assay is described as follows: SPR; DOT1L construct immobilised on CM5 chip.
Assay [19] has as its target DOT1L (925-1095) (human) (UniProt Q8TEK3). The assay is described as follows: SPR; DOT1L (925-1095) immobilised, compared with the longer constructs.
The target in assay [20] is Flag-tagged full length human DOT1L protein, DOT1L (1-1537) (human) (UniProt Q8TEK3). The assay is described as follows: SPR; Flag-DOT1L captured on anti-Flag CM5 chip, ENL as analyte.
Assay [21] shares this target. The assay is described as follows: SPR; full length Flag-DOT1L captured on chip.
Assay [22] has the same target. The assay can be described thus: SPR; Flag-DOT1L captured on anti-Flag CM5 chip, AF9 as analyte.
Assay [23] concerns the target Mocr-DOT1L (826-1095) (human) (UniProt Q8TEK3). The assay can be described thus: SPR; Mocr-DOT1L (826-1095) immobilised.

Where no end group is shown, it is not given here. fluorescein = fluorescein label, coupled through a lysine and two β-alanine spacer Where only a bound is given, the exact number is not on record here.

Ac-LPISIPL-NH2 [DOT1L 7 mer peptide, Ac-LPISIPL-NH2 (865-871)]: the Kd – broadly, the equilibrium constant for the complex coming apart – in assay [1] was found to be 3400 nM. Moreover, the IC50 (usually the concentration at which inhibition is half-maximal) in [2] stood at 7300 nM; in assay [5], 3900 nM. For the same molecule, the “fold reduction in binding against the 10-mer peptide” value in assay [3] came out at 5 fold; in [4] it was 8 fold. In assay [6], the fold lower affinity against the 16-mer and 10-mer DOT1L peptides was determined as 3 fold.
For the molecule Ac-LMVKITLDLLSRIP-NH2 [AF4 14 mer peptide, Ac-LMVKITLDLLSRIP-NH2], the 50% inhibitory concentration (IC50) in assay [2] was determined as 430 nM; in [5] it was 200 nM.
As for LPISIPLSTV-NH2 (not fully specified (N-terminus)) [N-Flu-DOT1L, fluorescein-labeled DOT1L 10-mer peptide (N-terminal label)], the values for the Kd in [7], in assay [8] and in assay [9] were 65 nM, 95 nM and 495 nM, respectively.
With Ac-LPISAPLSTV-NH2 [I869A, alanine mutated DOT1L 10mer peptide], the IC50 in assay [2] and in assay [5] was more than 200000 nM each time.
Take Ac-LPASIPLSTV-NH2 [I867A, alanine mutated DOT1L 10mer peptide]: the results for the IC50 in [2] and in assay [5] were more than 200000 nM and 57200 nM, respectively.
Ac-LPIAIPLSTV-NH2 [S868A, alanine mutated DOT1L 10mer peptide]: the IC50 in assay [2] is 29100 nM; in assay [5], 5300 nM.
Molecule LSPLRDTPPPQSLMVKITLDLLSRIPQ [AF4 recombinant protein (749-775 residues)] returned an IC50 in assay [10] of 560 nM.
Regarding Ac-LPISIPLSTA-NH2 [V874A, alanine mutated DOT1L 10mer peptide], the IC50 in [2] worked out at 4200 nM; in assay [5], 700 nM.
In the same order, the values of Ac-LPISIPLSTVQPNKLP-NH2 [DOT1L 16 mer peptide, Ac-LPISIPLSTVQPNKLP-NH2 (a.a. 865-880)] are 1560 nM and 320 nM.
In the same order, the values of Ac-LPISIPLATV-NH2 [S872A, alanine mutated DOT1L 10mer peptide] are 2800 nM and 550 nM.
In the same order, the values of Ac-LAISIPLSTV-NH2 [P866A, alanine mutated DOT1L 10mer peptide] are 6500 nM and 3300 nM.
Molecule Ac-LMVKITLDLLSRIP-NH2 [AF4 14 mer peptide, Ac-…-NH2] showed an IC50 in [10] of 280 nM.
Ac-LPISIPLSTVQPNKLP-NH2 [DOT1L 16 mer peptide, Ac-…-NH2 (a.a. 865-880)] gave a Kd in assay [11] of 900 nM. Further, the Ki (commonly a measure of affinity in units of concentration, obtained from inhibition or displacement) in assay [12] worked out at 80 nM.

B1: ENL (489-559), recombinant C-terminal domain of ENL (protein)
chain: GTYDKAYTDELVELHRRLMALRERNVLQQIVNLIEETGHFNVTNTTFDFDLFSLDETTVRKLQSCLEAVAT
B1: the Kd in assay [13] came to 122 nM; in assay [14], 90 nM; in [15], 81 nM; in assay [16] it was 238 nM; in [17], 6220 nM; in [18], 148 nM. In [20], this molecule showed a Kd of 206 nM. The molecule also came in with a fold decrease in binding affinity in assay [19] of 30 fold.

B2: AF9 (497-568), recombinant C-terminal domain of human AF9 (protein)
chain: GECDKAYLDELVELHRRLMTLRERHILQQIVNLIEETGHFHITNTTFDFDLCSLDKTTVRKLQSYLETSGTS
For the molecule B2, the equilibrium dissociation constant (Kd) in assay [13] came out at 92 nM; in assay [14] it was 42 nM; in assay [15] it was 78 nM; in assay [16], 111 nM; in [17] it was 1820 nM; in assay [18] it was 135 nM. The molecule further registered a Kd in [22] of 33 nM. In assay [19], this molecule came in with a fold decrease in binding affinity of 50 fold. Moreover, the fold higher affinity (AF9 against ENL) in assay [21] was determined as 6 fold.

B3: ENL H1 (489-544) (protein)
chain: GTYDKAYTDELVELHRRLMALRERNVLQQIVNLIEETGHFNVTNTTFDFDLFSLDE
For B3, in [23], the Kd amounted to 2800 nM and the fold decrease in binding affinity against the intact ENL C-terminal domain amounted to 10 fold.
For Ac-APISIPLSTV-NH2 [L865A, alanine mutated DOT1L 10mer peptide], the results for the IC50 in [2] and in assay [5] were 27500 nM and 98500 nM, respectively.
In the case of Ac-LPISIPLSAV-NH2 [T873A, alanine mutated DOT1L 10mer peptide], the half-inhibitory concentration (IC50) was determined as 360 nM in assay [2] and 58 nM in assay [5]. This molecule also had an inhibitory constant (Ki) in [12] of 203 nM.
In assay [8], Ac-LPISIPLSTV-fluorescein (also: C-terminal fluorescein label, attachment not given here) [C-Flu-DOT1L, fluorescently labeled DOT1L-10 mer peptide (C-terminal label)] came in with a Kd of 127 nM. This lies in the sub-micromolar range.
Ac-LPISIPASTV-NH2 [L871A, alanine mutated DOT1L 10mer peptide]: the values for the concentration for half-maximal inhibition (IC50) in [2] and in assay [5] were 147000 nM and 30700 nM, respectively.
Consider Ac-LPISIPLSTV-NH2 [DOT1L 10mer peptide, Ac-LPISIPLSTV-NH2 (a.a. 865-874)], for which the IC50 in assay [2] was 1340 nM; in [5], 490 nM.
As to EETGHFNVTNTTFDFDLFSLDETTVRKLQSCLEAVAT [ENL H2 (523-559)], in [23], the Kd was determined as 14600 nM and the fold decrease in binding affinity against the intact ENL C-terminal domain was determined as 30 fold.
In assay [11], Ac-LPISIPLSTV-NH2 [DOT1L 10mer peptide, Ac-…-NH2 (a.a. 865-874)] had a Kd of 1100 nM. Besides, the inhibition constant Ki in assay [12] turned out to be 68 nM.
Regarding Ac-LPISIALSTV-NH2 [P870A, alanine mutated DOT1L 10mer peptide], the IC50 in assay [2] was determined as 11600 nM; in assay [5], 2800 nM.

The values are drawn from patent publication US20150368300A1, “COMPOSITIONS AND METHODS RELATING TO […] DOT1L RECRUITMENT BY MLL-FUSION PROTEINS” (published 2015).
